Measured values as given in the supplement of paper PMC9170038.

Columns and labels:
[1] = test system: K4 kissing-loop RNA reporter; assay: apparent KD of K4 kissing-loop reporter; higher = weaker reporter binding; conditions: Eterna round: R107;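 further: bound reporter read as fluorescence of individual clusters on recovered sequencing chips by microscopy, with normalized cluster intensities fitted with a binding model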
Protocol: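 RNA-MaP round R107: designed RNA switches with theophylline, tryptophan, arginine or FMN aptamers are transcribed on-chip within common flanks. They are titrated with a labelled K4 kissing-loop RNA reporter in RNA-MaP buffer (100 mM Tris pH 7.5, 80 mM KCl, 4 mM MgCl2), without ligand or with the indicated ligand. Median apparent KD per design.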

MS2 coat protein = assay: apparent KD of MS2 coat protein; designed switch direction (-1 OFF switch, 1 ON switch): -1; higher = weaker reporter binding
Method in brief: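 Normalised cluster fluorescence was curve-fitted, and each design's median over clusters is its apparent KD. Before this, SNAP-549-labelled MS2 coat protein was titrated from 0.7 or 1.5 nM, doubling to 3 µM, over RNA switches transcribed on Illumina chips by stalled E. coli RNA polymerase. Titrations had no input, 200 uM small-molecule ligand, or an oligonucleotide input, and steps lasted 0.8–1.5 h (lowest) to 10–20 min (highest).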

[2] = input ligand: theophylline 20 uM
[3] = input ligand: tryptophan 2.4 mM
[4] = input ligand: microRNA oligo, concentration not stated
[5] = Eterna round: R95, input ligand: FMN 200 uM
[6] = Eterna round: R95, input ligand: microRNA oligo, concentration not stated
[7] = Eterna round: R95, input ligand: none

Sequence	apparent KD of K4 kissing-loop reporter ([1]; input ligand: FMN 200 uM)	apparent KD of K4 kissing-loop reporter ([1]; input ligand: arginine 13.2 mM)	apparent KD of K4 kissing-loop reporter ([1]; input ligand: none)	apparent KD of K4 kissing-loop reporter [1, 2]	apparent KD of K4 kissing-loop reporter [1, 3]	apparent KD of MS2 coat protein (MS2 coat protein; [6])	also measured
AAAACUCGGUAGUGAUGUUAUUGAGUGAACAAGGAUAUCUAUGAUAAGAGAAGGUGUAAGUUAAGCGUAUUUCGGCCUGUACAAU [theeternabot_sameState_KL_FMN_A_34]	115 nM	101 nM	114 nM	106 nM	103 nM	–	–
AAAAUAAACUAGUGAUGUUGGUGUCCAGAUACCAGCGACGAAAGUCGCCCUUGGCAGCUGUGGACGUACAAAAUAAGUACGUCCU [MatMod 21 - Jieux - Same State - Theophylline A]	319 nM	183 nM	345 nM	198 nM	289 nM	–	–
AAAAUAAAUAGCAGUCACGGAGUGAUGUUCCGAGGACCGGUACGGCCGCCACUCGACCAGACAAAGUCUGGAGGCGGAGACUGCA [#SwitchBubble 20 #K4Early]	166 nM	176 nM	193 nM	187 nM	162 nM	–	–
AAAAUAAAUCAGUGAUGUUGGUAUCUGGAUACCAGCGAUAAUCAUCGCCCUUGGCAGCCAUGGACGUACAAAAUAAGUACGUCCU [MatMod 17 - Jieux - Same State - Theophylline A]	242 nM	157 nM	180 nM	228 nM	193 nM	–	–
AAAAUAACCCAGUGAUGUUGGUAUCCAGAUACCAGCGACGAAAGUCGCCCUUGGCAGCUGUGGACGUACAAAAUAAGUACGUCCU	903 nM	395 nM	403 nM	545 nM	612 nM	–	–
AAAAUAAGCCAGUGAUGUUGGUGUCCAGAUACCAGCGACGAAAGUCGCCCUUGGCAGCUGUGGACGUACAAAAUAAGUACGUCCU	1030 nM	760 nM	1140 nM	957 nM	1120 nM	–	–
AAAAUAAUCCAGUGAUGUUGGUAUACAGAUACCAGCGACGAAAGUCGCCCUUGGCAGCUGUGGACGUACAAAAUAAGUACGUCCU	934 nM	972 nM	1210 nM	592 nM	813 nM	–	–
UUUUUAUAUGAAGGAUAUACUUAACAUGAGGAUCACCCAUGUGGUGUUGUGAGUGAGUGAGUUUAGUAGAAGGUCAAUUAGUGU [JMF's solution 102] (Eterna round: R96, puzzle: Exclusion NG 2)	–	–	–	–	–	–	apparent KD of MS2 coat protein (MS2 coat protein; input ligand: FMN 200 uM): 998 nM; apparent KD of MS2 coat protein (MS2 coat protein; [4]): 314 nM; apparent KD of MS2 coat protein (MS2 coat protein; input ligand: none): 476 nM
UUUUUAUAUGAAGGAUAUACUUAACAUGAGGAUCACCCAUGUGGUGUUGUGAGUGAGUGAGUUUAGUAGAAGGUCAAUUCGUUU [JMF's solution 80] (Eterna round: R96, puzzle: Exclusion NG 2)	–	–	–	–	–	–	apparent KD of MS2 coat protein (MS2 coat protein; input ligand: FMN 200 uM): 823 nM; apparent KD of MS2 coat protein (MS2 coat protein; [4]): 294 nM; apparent KD of MS2 coat protein (MS2 coat protein; input ligand: none): 356 nM
UUUUUCAUCUAUGGGAGUGACAUGAGGAUCACCCAUGUGUGUCUUGUUUUUUGUUCGUCUAAGACUUUCUGAUCAGU [JR_SV3TOV1_Sub032] (puzzle: Sensor v3, turn-off variant 1)	–	–	–	–	–	313 nM	apparent KD of MS2 coat protein (MS2 coat protein; [5]): 128 nM; apparent KD of MS2 coat protein (MS2 coat protein; [7]): 160 nM
UUUUUCGAACAAGCUUCGAACAUGAGGAUCACCCAUGUAGGUAGAUUUGAGUAGGUUUGGAAGUAAGCUCGUCUUAU [JR_SV3TOV1_Sub081] (puzzle: Sensor v3, turn-off variant 1)	–	–	–	–	–	561 nM	apparent KD of MS2 coat protein (MS2 coat protein; [5]): 416 nM; apparent KD of MS2 coat protein (MS2 coat protein; [7]): 592 nM
UUUUUCGAACAAGCUUCGUACAUGAGGAUCACCCAUGUUUUUAGUUUUGUGUUGGUCAGUAUGGAAGUUCGUCUUAU [JR_SV3TOV1_Sub088] (puzzle: Sensor v3, turn-off variant 1)	–	–	–	–	–	356 nM	apparent KD of MS2 coat protein (MS2 coat protein; [5]): 239 nM; apparent KD of MS2 coat protein (MS2 coat protein; [7]): 288 nM
UUUUUGUCAGGAUAUGAGUAGUAGUACUAUUGUUUUAUUAUUUAGAAGGGACAUGAGGAUCACCCAUGUUUCUC [Bring Us a Shrubbery-01] (puzzle: Exclusion 4)	–	–	–	–	–	14.4 nM	–
UUUUUGUGAGGAUAUCAGUAGUAAAAAAAUAAAAUUACUACUGAGAAGGCACAUGAGGAUCACCCAUGUUCCUU [salish99_ex4_r3_011] (puzzle: Exclusion 4)	–	–	–	–	–	14.5 nM	–
UUUUUGUGAGGAUAUUAGUAGUAAAAAAAUAAAAUUACUACUGAGAAGGCACAUGAGGAUCACCCAUGUUCCUC [salish99_ex4_r3_040] (puzzle: Exclusion 4)	–	–	–	–	–	34.9 nM	–
UUUUUGUGAGGAUAUUAGUAGUAAAUAAAUAAAAUUACUACUGAGAAGGCACAUGAGGAUCACCCAUGUUCCUC [salish99_ex4_r3_068] (puzzle: Exclusion 4)	–	–	–	–	–	33.2 nM	–
